# Several values for one entry are separate records, joined by “and”; a condition that tells them apart may be missing. Equal entries are not always repeated.
# Target: WD-40 repeat-containing protein 5 (WDR5), full-length (human) (UniProt P61964)
# Assay: ITC
row,Substance,Kd
1,Histone H3 1–7aa H3R2me1 peptide (from UniProt P68431 2-8),8.1 µM and 9 µM
2,Histone H3 1–7aa unmodified peptide (from UniProt P68431 2-8),11 µM and 11.8 µM
3,Histone H3 1–7aa H3R2me2s peptide (from UniProt P68431 2-8),10.6 µM and 10.2 µM
